B1: MORAb-003-VCP-eribulin (MORAb-202) (antibody, human IgG1, kappa, V domains shown)
VH: EVQLVESGGGVVQPGRSLRLSCSASGFTFSGYGLSWVRQAPGKGLEWVAMISSGGSYTYYADSVKGRFAISRDNAKNTLFLQMDSLRPEDTGVYFCARHGDDPAWFAYWGQGTPVTVSS
VL: DIQLTQSPSSLSASVGDRVTITCSVSSSISSNNLHWYQQKPGKAPKPWIYGTSNLASGVPSRFSGSGSGTDYTFTISSLQPEDIATYYCQQWSSYPYMYTFGQGTKVEIKR
modifications: Mal-PEG2-Val-Cit-pAB-eribulin on interchain cysteines, sites not given
B2: 111B10-xi (antibody, human IgG1, kappa, V domains shown)
VH: QSVEESGGRLVTPGTPLTLTCTVSGFSLNNYAMSWVRQAPGKGLEWIGSISTGGLAFYANWAKGRFTISRTSTTVDLKMTSLTTEDTATYFCGRNGGGSYIFYYFDLWGQGTLVTVSS
VL: AFELTQTPSSVEAAVGGTITIKCQASQSISSYLSWYQQKPGQPPKLLIYSASTLASGVSSRFKGSGSGTEYTLTISDLECADAATYFCQSYYDIGTSTFGGGTEVVVKR
notes: Rabbit-human chimeric anti-human mesothelin with unpaired cysteine at LCcys80; parental mAb in Biacore; also called 111810 xi

How the values were obtained:
[1] = target: T1, Human folate receptor alpha on tumor cells (human, UniProt P15328 25-234); experiment: cell-based or functional assay
T1 sequence (P15328 25-234 limits assumed): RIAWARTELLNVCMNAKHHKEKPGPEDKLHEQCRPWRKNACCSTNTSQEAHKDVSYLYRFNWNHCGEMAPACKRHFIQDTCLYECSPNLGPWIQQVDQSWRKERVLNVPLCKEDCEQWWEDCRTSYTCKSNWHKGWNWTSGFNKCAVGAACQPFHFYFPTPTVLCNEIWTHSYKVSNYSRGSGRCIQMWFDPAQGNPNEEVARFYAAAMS

[2] = target: T1, Human folate receptor alpha on tumor …; experiment: cell-based or functional assay; remark: listed apart in the source
[3] = target: T2, Recombinant human mesothelin (human, UniProt Q13421 296-580, limits assumed); experiment: Biacore T100, antibody captured on anti-human IgG, antigen injected, 1:1 Langmuir
T2 construct: also called MSLN
T2 sequence (Q13421 other isoform, or with tags, fused parts or gaps limits assumed): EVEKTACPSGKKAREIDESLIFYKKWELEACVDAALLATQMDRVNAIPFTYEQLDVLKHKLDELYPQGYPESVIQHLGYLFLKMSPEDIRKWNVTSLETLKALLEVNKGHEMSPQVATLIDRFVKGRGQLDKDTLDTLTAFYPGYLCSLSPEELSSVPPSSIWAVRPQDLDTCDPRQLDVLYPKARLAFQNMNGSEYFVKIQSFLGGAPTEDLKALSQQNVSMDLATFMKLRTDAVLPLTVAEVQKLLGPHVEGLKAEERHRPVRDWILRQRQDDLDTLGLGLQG
Procedure: Antibody concentrations were adjusted to 2 μg/mL in HBS-P+ buffer (GE Healthcare). Unmodified antibodies, or ADCs, were injected over an anti-human IgG sensor on a BIAcore T100 (GE Healthcare) for 1 min at a flow rate of 10 μL/min. To record the antigen association to the captured antibody, a series of increasing concentrations of antigen was injected for 300 sec at a flow rate of 30 μL/min. […] The dissociation of antigen was monitored for 30 min at the same flow rate. The sensor surface was regenerated by injecting 3 M MgCl₂ for 2×30 sec at a flow rate of 30 μL/min. Sensograms were analyzed with Biacore T100 Evaluation Software using a 1:1 Langmuir binding model.
Binding affinities of the parental antibodies were determined by Biacore analysis, as described above in section 1.6.1. Aggregation levels for all anti-human mesothelin ADCs were determined by SEC-HPLC and the DAR was analyzed using HIC-HPLC. In vitro potency was evaluated using a Crystal Violet cell-based cytotoxicity assay in A3 (A431 stabily transfected with human mesothelin (MSLN), MSLN^hi), OVCAR3 (human ovarian, MSLN^hi), HEC-251 (human endometroid, MSLN^med), H226 (human lung squamous cell mesothelioma, MSLN^lo, and A431 parental (MSLN^neg) cells. The results of the DAR, aggregation, and cytotoxicity analyses are shown in Table 50.

Binder	Cytotoxicity EC50 (nM), A431-A3 (FR+/-), Crystal Violet assay [1]	Cytotoxicity EC50 (nM), IGROV I (FR+++), Crystal Violet assay [1]	Cytotoxicity EC50 (nM), NCI-H2110 (FR++), Crystal Violet assay [1]	Cytotoxicity EC50 (nM), OVCAR3 (FR++), Crystal Violet assay [1]	IC50 (read off the curve), % survival of IGROV1 cells, conjugate alone [2]	IC50 (read off the curve), % survival of IGROV1 cells, in the presence of 2 µM unconjugated MORAb-003 as competitor [2]	Kd [3]
B1	23 nM	0.01 nM	0.74 nM	0.16 nM	~0.03 nM	~3 nM	
B2							6.3 nM
